The values that follow come from paper PMC6726633, “Different Grp94 components interact transiently with the myocilin olfactomedin domain in vitro to enhance or retard its amyloid aggregation” (Scientific Reports, 2019).

Assay [1] concerns the target T1, Myocilin olfactomedin domain, residues 228-504 (human), Q99972.
T1 chain: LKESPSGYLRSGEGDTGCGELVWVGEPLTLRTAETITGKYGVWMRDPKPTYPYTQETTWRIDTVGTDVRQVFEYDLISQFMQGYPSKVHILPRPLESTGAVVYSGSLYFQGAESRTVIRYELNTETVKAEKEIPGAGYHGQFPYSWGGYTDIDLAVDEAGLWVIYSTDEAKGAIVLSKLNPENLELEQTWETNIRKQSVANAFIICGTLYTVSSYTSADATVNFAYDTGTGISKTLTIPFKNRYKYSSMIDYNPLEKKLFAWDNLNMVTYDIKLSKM
Kind of assay: cross-linking; OLF-only control samples of the BS3(d0/d4) cross-linking experiments, PBS; SDS-PAGE and LC-MS. The following applies: remark: other sources report otherwise.

Assay [2] deals with T2, Grp94 N and middle domains, residues 22-594 (human, UniProt P14625 22-594).
T2 construct: Grp94, Homo sapiens, residues 22-594 (STOP codon installed after position 594 on the Grp94FL template); Tag removed with TEV protease; also called Grp94NM; NM; source: E. coli BL21(DE3), purified (HisTrap, SEC, TEV cleavage, SEC); not shown: His6, N-terminal, cleaved
T2 sequence (P14625 22-594): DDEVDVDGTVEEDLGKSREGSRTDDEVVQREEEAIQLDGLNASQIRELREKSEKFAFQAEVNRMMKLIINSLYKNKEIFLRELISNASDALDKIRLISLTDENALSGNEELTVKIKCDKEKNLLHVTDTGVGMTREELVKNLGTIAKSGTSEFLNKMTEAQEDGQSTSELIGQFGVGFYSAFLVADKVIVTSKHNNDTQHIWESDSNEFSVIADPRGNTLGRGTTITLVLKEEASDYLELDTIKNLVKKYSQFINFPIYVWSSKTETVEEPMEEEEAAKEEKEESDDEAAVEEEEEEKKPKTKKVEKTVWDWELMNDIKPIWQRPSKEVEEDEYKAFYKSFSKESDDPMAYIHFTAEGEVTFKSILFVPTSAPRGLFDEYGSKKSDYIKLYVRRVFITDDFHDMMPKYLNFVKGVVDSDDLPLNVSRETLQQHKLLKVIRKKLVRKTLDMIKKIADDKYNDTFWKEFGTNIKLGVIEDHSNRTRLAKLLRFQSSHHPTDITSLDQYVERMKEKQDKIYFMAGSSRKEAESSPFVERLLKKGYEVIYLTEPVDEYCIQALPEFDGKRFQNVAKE
Kind of assay: cross-linking; Grp94N, Grp94NM or Grp94MC:OLF 1:1, OLF 100 μM (dansylated or label-free), PBS, 10 mM BS3(d0/d4) 3 h at 37 °C; SDS-PAGE (Coomassie, dansyl fluorescence), in-gel digestion and LC-MS. The following applies: both partners purified.

The target of assay [3] is T3, Grp94 N-terminal nucleotide-binding domain (including Pre-N), residues 22-337 (human, UniProt P14625 22-337).
T3 construct: Grp94, Homo sapiens, residues 22-337 (STOP codon installed after position 337 on the Grp94FL template); Tag removed with TEV protease; also called N domain; source: E. coli BL21(DE3), purified (HisTrap, SEC, TEV cleavage, SEC); not shown: His6, N-terminal, cleaved
T3 sequence (P14625 22-337): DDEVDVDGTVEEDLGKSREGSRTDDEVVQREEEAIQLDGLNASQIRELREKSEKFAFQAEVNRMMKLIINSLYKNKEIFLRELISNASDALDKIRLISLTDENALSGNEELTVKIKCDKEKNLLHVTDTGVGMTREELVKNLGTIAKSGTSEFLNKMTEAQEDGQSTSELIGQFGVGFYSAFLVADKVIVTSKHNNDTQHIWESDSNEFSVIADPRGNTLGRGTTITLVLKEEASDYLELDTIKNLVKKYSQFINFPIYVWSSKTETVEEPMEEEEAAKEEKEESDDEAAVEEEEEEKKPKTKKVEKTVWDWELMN
Kind of assay: co-sedimentation; after the ThT aggregation assay (Grp94 construct 3 μM, OLF 30 μM, PBS, 42 °C, up to 96 h): centrifugation 10 min at 17,000 x g; supernatant, wash and pellet on 12% reducing SDS-PAGE, Coomassie, densitometry; only samples containing OLF gave pellets. The following applies: both partners purified.

Assay [4] addresses T4, Grp94 Pre-N truncation variant, residues 58-804 (canine) (Canis lupus familiaris, UniProt P41148 58-804).
T4 construct: C-terminal 6xHis tag is non-cleavable; not shown: His6, C-terminal, kept
The assay is described as above. The following applies: both partners purified.

Assay [5] has as its target T5, Grp94 Pre-N truncation variant, residues 73-804 (canine) (Canis lupus familiaris, UniProt P41148 73-804).
T5 construct: C-terminal 6xHis tag is non-cleavable; not shown: His6, C-terminal, kept
The description is as above. The following applies: both partners purified.

T5 sequence (P41148 73-804, change not shown): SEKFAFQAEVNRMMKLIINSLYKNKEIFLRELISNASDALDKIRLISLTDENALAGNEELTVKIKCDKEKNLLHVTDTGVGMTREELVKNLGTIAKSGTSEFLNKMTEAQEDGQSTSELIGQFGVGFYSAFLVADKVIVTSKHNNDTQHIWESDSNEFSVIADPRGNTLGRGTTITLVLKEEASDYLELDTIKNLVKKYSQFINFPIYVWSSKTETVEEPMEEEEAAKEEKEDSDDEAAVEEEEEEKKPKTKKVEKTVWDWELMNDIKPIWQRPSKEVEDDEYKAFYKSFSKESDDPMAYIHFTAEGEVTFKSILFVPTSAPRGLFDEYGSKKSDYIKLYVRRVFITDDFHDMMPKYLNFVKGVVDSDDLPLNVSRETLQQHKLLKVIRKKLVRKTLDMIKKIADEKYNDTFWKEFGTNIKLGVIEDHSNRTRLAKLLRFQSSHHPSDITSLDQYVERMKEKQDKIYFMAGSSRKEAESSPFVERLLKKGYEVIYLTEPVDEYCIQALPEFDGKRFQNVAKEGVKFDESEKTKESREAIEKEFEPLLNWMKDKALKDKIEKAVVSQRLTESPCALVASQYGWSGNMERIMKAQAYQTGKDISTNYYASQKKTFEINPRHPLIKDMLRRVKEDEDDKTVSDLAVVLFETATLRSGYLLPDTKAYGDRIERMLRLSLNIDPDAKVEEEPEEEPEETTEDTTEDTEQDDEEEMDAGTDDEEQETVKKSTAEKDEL
T4 sequence (P41148 58-804, change not shown): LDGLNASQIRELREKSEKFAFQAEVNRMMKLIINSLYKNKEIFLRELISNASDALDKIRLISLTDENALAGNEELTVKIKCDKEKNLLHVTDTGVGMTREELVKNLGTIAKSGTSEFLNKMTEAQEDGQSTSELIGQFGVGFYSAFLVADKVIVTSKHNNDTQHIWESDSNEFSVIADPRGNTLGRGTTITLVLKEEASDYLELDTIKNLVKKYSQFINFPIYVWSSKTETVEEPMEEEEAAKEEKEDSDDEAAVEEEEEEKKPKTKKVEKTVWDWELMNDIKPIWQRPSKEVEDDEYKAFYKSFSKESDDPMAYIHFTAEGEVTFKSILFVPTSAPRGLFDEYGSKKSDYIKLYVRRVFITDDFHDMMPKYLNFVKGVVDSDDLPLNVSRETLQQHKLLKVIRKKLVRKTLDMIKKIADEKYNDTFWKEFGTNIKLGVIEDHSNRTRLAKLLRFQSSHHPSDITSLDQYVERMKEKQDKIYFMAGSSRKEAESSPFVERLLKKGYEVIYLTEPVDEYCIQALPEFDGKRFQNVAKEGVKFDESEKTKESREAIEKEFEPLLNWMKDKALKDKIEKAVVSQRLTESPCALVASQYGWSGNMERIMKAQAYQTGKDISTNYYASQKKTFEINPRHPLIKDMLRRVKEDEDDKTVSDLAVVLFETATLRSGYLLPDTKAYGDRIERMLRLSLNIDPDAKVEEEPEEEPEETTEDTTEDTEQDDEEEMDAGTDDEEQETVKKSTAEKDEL

B1: Myocilin olfactomedin domain, residues 228-504, Q99972 228-504 (domain or fragment)
chain: LKESPSGYLRSGEGDTGCGELVWVGEPLTLRTAETITGKYGVWMRDPKPTYPYTQETTWRIDTVGTDVRQVFEYDLISQFMQGYPSKVHILPRPLESTGAVVYSGSLYFQGAESRTVIRYELNTETVKAEKEIPGAGYHGQFPYSWGGYTDIDLAVDEAGLWVIYSTDEAKGAIVLSKLNPENLELEQTWETNIRKQSVANAFIICGTLYTVSSYTSADATVNFAYDTGTGISKTLTIPFKNRYKYSSMIDYNPLEKKLFAWDNLNMVTYDIKLSKM
On to B1, for which, in assay [1], the stoichiometry N was determined as 2.

B2: Myocilin olfactomedin domain, residues 228-504 (domain or fragment, human, UniProt Q99972 228-504, looked up)
chain: LKESPSGYLRSGEGDTGCGELVWVGEPLTLRTAETITGKYGVWMRDPKPTYPYTQETTWRIDTVGTDVRQVFEYDLISQFMQGYPSKVHILPRPLESTGAVVYSGSLYFQGAESRTVIRYELNTETVKAEKEIPGAGYHGQFPYSWGGYTDIDLAVDEAGLWVIYSTDEAKGAIVLSKLNPENLELEQTWETNIRKQSVANAFIICGTLYTVSSYTSADATVNFAYDTGTGISKTLTIPFKNRYKYSSMIDYNPLEKKLFAWDNLNMVTYDIKLSKM
notes: Myocilin C-terminal olfactomedin (OLF) domain, Homo sapiens, residues 228-504; The results call S233 the N-terminal residue of the OLF construct, though the methods give residues 228-504 and a cross-link at K229 is reported; also called wild-type OLF
Regarding B2, the binding result in assay [2], in assay [3], in assay [4] and in assay [5] was “binds” in each case.

B3: Dansylated myocilin olfactomedin domain (domain or fragment, human, UniProt Q99972 228-504, looked up)
chain: LKESPSGYLRSGEGDTGCGELVWVGEPLTLRTAETITGKYGVWMRDPKPTYPYTQETTWRIDTVGTDVRQVFEYDLISQFMQGYPSKVHILPRPLESTGAVVYSGSLYFQGAESRTVIRYELNTETVKAEKEIPGAGYHGQFPYSWGGYTDIDLAVDEAGLWVIYSTDEAKGAIVLSKLNPENLELEQTWETNIRKQSVANAFIICGTLYTVSSYTSADATVNFAYDTGTGISKTLTIPFKNRYKYSSMIDYNPLEKKLFAWDNLNMVTYDIKLSKM
modifications: dansyl (~2 dansyl modifications per OLFd by MS), sites not stated
notes: Myocilin C-terminal olfactomedin (OLF) domain, Homo sapiens, residues 228-504; Same construct as m7, chemically labelled; also called OLFd; dansyl-modified OLF
Consider B3, for which the binding result in assay [2] is “binds”.
